B1: NP_002788.1 (parent)
chain: DGWIRVSSDNVADLHEKYSGSTP

Variants of: B1
Test: protein stability index of a GFP-peptide fusion (GPS, HEK-293T) (PSI 1-6); higher = more stable
Details: c terminus: native
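Further: lentivirally expressed fusion library, cells FACS-sorted into six equal-sized GFP/DsRed ratio bins, PSI computed from sequencing read fractions per bin weighted by bin number.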

In order of falling protein stability index:
1. DGWIRVSSDNVADLHEKYSDSTP  4.65
2. DGWIRVSSDNVADLHEKYSESTP  4.64
3. DGWIRVSSDNVADLHEKYSGETP  4.56
4. DGWIRVSSDNVADLHEKYSGDTP  4.54
5. DGWIRVSSDNVADLHEKPSGSTP  4.33
6. DGWIRVSSDNVADLHEKKSGSTP  4.17
7. DGWIRVSSDNVADLHEKYSTSTP  4.17
8. DGWIRVSSDNVADLHEKYSRSTP  4.17
9. DGWIRVSSDNVADLHEKYSPSTP  3.99
10. DGWIRVSSDNVADLHEKYSKSTP  3.93
11. DGWIRVSSDNVADLHEKYSNSTP  3.92
12. DGWIRVSSDNVADLHEKYSISTP  3.86
13. DGWIRVSSDNVADLHEKYSVSTP  3.82
14. DGWIRVSSDNVADLHEKYSASTP  3.8
15. DGWIRVSSDNVADLHEKYSHSTP  3.79
16. DGWIRVSSDNVADLHEGYSGSTP  3.75
17. DGWIRVSSDNVADLHEKYSLSTP  3.72
18. DGWIRVSSDNVADLHEPYSGSTP  3.69
19. DGWIRVSSDNVADLHEKTSGSTP  3.66
20. DGWIRVSSDNVADLHEKDSGSTP  3.64
21. DGWIRVSSDNVADLHEKYSFSTP  3.63
22. DGWIRVSSDNVADLHEKYSMSTP  3.63
23. DGWIRVSSDNVADLHEKGSGSTP  3.6
24. DGWIRVSSDNVADLHEKSSGSTP  3.6
25. DGWIRVSSDNVADLHEKYSGGTP  3.59
26. DGWIRVSSDNVADLHEDYSGSTP  3.58
27. DGWIRVSSDNVADLHEAYSGSTP  3.52
28. DGWIRVSSDNVADLHEKYSGPTP  3.5
29. DGWIRVSSDNVADLHEKYDGSTP  3.5
30. DGWIRVSSDNVADLHEEYSGSTP  3.47
31. DGWIRVSSDNVADGHEKYSGSTP  3.47
32. DGWIRVSSDNVADLHEKQSGSTP  3.46
33. DGWIRVSSDNVADLHEKYSSSTP  3.44
34. DGWIRVSSDNVADLHEKYSQSTP  3.43
35. DGWIRVSSDNVADLHESYSGSTP  3.41
36. DGWIRVSSDNVADLHEKASGSTP  3.39
37. DGWIRVSSDNVADLHEFYSGSTP  3.36
38. DGWIRVSSDNVADLHEYYSGSTP  3.34
39. DGWIRVSSDNVADLHENYSGSTP  3.33
40. DGWIRVSSDNVADLHEKRSGSTP  3.3
41. DGWIRVSSDNVADLHEKYSYSTP  3.29
42. DGWIRVSSDNVADLHETYSGSTP  3.27
43. DGWIRVSSDNVADLHEHYSGSTP  3.24
44. DGWIRVSSDNVADLHEKESGSTP  3.23
45. DGWIRVSSDNVADLHEKVSGSTP  3.22
46. DGWIRVSSDNVADLHEMYSGSTP  3.19
47. DGWIRVSSDNVADLHEVYSGSTP  3.18
48. DGWIRVSSDNVADLHEQYSGSTP  3.16
49. DGWIRVSSDNVADLHEKNSGSTP  3.13
50. DGWIRVSSDNVADLHEIYSGSTP  3.12
51. DGWIRVSSDNVADLHEKISGSTP  3.11
52. DGWIRVSSDNVADLHEKCSGSTP  3.09
53. DGWIRVSSDNVADLHEKYNGSTP  3.07
54. DGWIRVSSDNVADLHEKYSGKTP  3.06
55. DGWIRVSSDNVADLHELYSGSTP  3.06
56. DGWIRVSSDNVADLHECYSGSTP  3.04
57. DGWIRVSSDNVADLHEKYGGSTP  3.02
58. DGWIRVSSDNVADLHEKYSGQTP  3.01
59. DGWIRVSSDNVADLHEWYSGSTP  2.97
60. DGWIRVSSDNVADLHEKYVGSTP  2.94
61. DGWIRVSSDNVADLHEKMSGSTP  2.92
62. DGWIRVSSDNVADCHEKYSGSTP  2.92
63. DGWIRVSSDNVADLHEKYSWSTP  2.9
64. DGWIRVSSDNVADLHEKYCGSTP  2.9
65. DGWIRVSSDNVADDHEKYSGSTP  2.89
66. DGWIRVSSDNVADLHEKYEGSTP  2.87
67. DGWIRVSSDNVADTHEKYSGSTP  2.86
68. DGWIRVSSDNVADLHEKYSCSTP  2.82
69. DGWIRVSSDNVADLHEKYFGSTP  2.82
70. DGWIRVSSDNVADLHEKWSGSTP  2.81
71. DGWIRVSSDNVADEHEKYSGSTP  2.74
72. DGWIRVSSDNVADLHEKLSGSTP  2.69
73. DGWIRVSSDNVADLHEKHSGSTP  2.68
74. DGWIRVSSDNVADLHEKYWGSTP  2.68
75. DGWIRVSSDNVADWHEKYSGSTP  2.62
76. DGWIRVSSDNVADLHEKYHGSTP  2.56
77. DGWIRVSSDNVADLHEKYSGHTP  2.49
78. DGWIRVSSDNVADLHEKYIGSTP  2.49
79. DGWIRVSSDNVADLHEKYTGSTP  2.47
80. DGWIRVSSDNVADLHEKYYGSTP  2.47
81. DGWIRVSSDNVADLHEKFSGSTP  2.44
82. DGWIRVSSDNVADLHEKYQGSTP  2.41
83. DGWIRVSSDNVADKHEKYSGSTP  2.37
84. DGWIRVSSDNVADVHEKYSGSTP  2.36
85. DGWIRVSSDNVADLHEKYPGSTP  2.34
86. DGWIRVSSDNVADLHEKYRGSTP  2.34
87. DGWIRVSSDNVADLHEKYMGSTP  2.28
88. DGWIRVSSDNVADLHEKYAGSTP  2.26
89. DGWIRVSSDNVADLHEKYSGATP  2.21
90. DGWIRVSSDNVADLHEKYSGFTP  2.16
91. DGWIRVSSDNVADLHEKYSGLTP  2.06
92. DGWIRVSSDNVADLHEKYLGSTP  2
93. DGWIRVSSDNVADLHEKYSGCTP  1.98
94. DGWIRVSSDNVADLHEKYSGITP  1.95
95. DGWIRVSSDNVADLHEKYKGSTP  1.95
96. DGWIRVSSDNVADLHEKYSGNTP  1.94
97. DGWIRVSSDNVADLHEKYSGMTP  1.87

From the supplement of paper PMC10567573
